Results published in the supplement of paper PMC6757056.
± gives the standard deviation of the averaged measurements.

B1: library; a variant is named by its letters at N, in order (parent)
chain: GCUGUCACCGGUGCUUGGUACGUUAUAUUCAGCCGGUCUGAUGAGUCUNNNNNNAGACGAAACAGC

Key:
[1] = variants of: B1; test: FACS-Seq fitted mean relative fluorescence mCherry/BFP without ligand (log10 relative fluorescence); HEK293T overexpressing SLC46A1; higher = higher reporter protein expression; settings: without (6R,S)-folinic acid; ligand present: no
In short: (§1)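 HEK293T libraries were made by lentiviral transduction with a ribozyme-switch mCherry reporter and an EF1α-BFP marker, enriched, and incubated with or without ligand for 48 h. Cells were sorted into 6 mCherry/BFP bins, and each bin's genomic DNA was PCR-amplified, barcoded and run on MiSeq. Fluorescence was derived by normal fitting of the bin counts. The fitted log10(mCherry/BFP) mean was scaled to five spiked-in control ribozymes.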

[2] = variants of: B1; test: normalized RNA/DNA level without ligand (relative to sTRSVctl = 100) (log10 (% of sTRSVctl)); HEK293T overexpressing SLC46A1; higher = less ribozyme self-cleavage, higher mRNA level; settings: without (6R,S)-folinic acid; ligand present: no
In short: (§2)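 Library plasmids carrying ribozyme switches linked to mCherry, or to eGFP in some ligand experiments, were transfected into HEK293T at 4 µg per 6-well well, with any ligand added 1 h earlier. Seventy-two hours on, total RNA was extracted with EDTA and reverse-transcribed, amplified, barcoded and sequenced. RNA level was RNA over DNA reads normalized to a spiked-in non-cleaving sequence or to the top sequences, then scaled and log-transformed. The top set was 25 sequences, the transform was ×100 and log10, and sequences needed ≥100 DNA reads.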

[3] = variants of: B1; test: FACS-Seq fitted mean relative fluorescence mCherry/BFP with ligand (log10 relative fluorescence); HEK293T overexpressing SLC46A1; ligand concentration (+) FACS-Seq: 6 mM; higher = higher reporter protein expression; settings: with (6R,S)-folinic acid; ligand present: yes
In short: as §1

[4] = variants of: B1; test: normalized RNA/DNA level with ligand (relative to sTRSVctl = 100) (log10 (% of sTRSVctl)); HEK293T overexpressing SLC46A1; ligand concentration (+) RNA-Seq: 6 mM; higher = less ribozyme self-cleavage, higher mRNA level; settings: with (6R,S)-folinic acid; ligand present: yes
In short: as §2

Variant	FACS-Seq fitted mean (log10) [1]	normalized RNA/DNA level without ligand (log10) [2]	FACS-Seq fitted mean (log10) [3]	normalized RNA/DNA level with ligand (log10) [4]
UUGGAG	-0.00192 ± 0.0051	1.71 ± 0.035	0.315 ± 0.1	1.99 ± 0.016
UUGGAA	0.241 ± 0.03	1.9 ± 0.025	0.528 ± 0.17	1.99 ± 0.029
AUCGAG	0.076 ± 0.01	1.813 ± 0.017	0.217 ± 0.22	2 ± 0.032
AUCGAC	0.0463 ± 0.0065	2.041 ± 0.0079	0.0476 ± 0.024	2.01 ± 0.03
GUGAGA	0.474 ± 0.23	1.973 ± 0.013	0.54 ± 0.081	2.02 ± 0.022
GUGAGG	0.394 ± 0.093	1.872 ± 0.0053	0.497 ± 0.2	2.015 ± 0.0075
UUGAGG	0.275 ± 0.1	1.86 ± 0.025	0.336 ± 0.18	2.006 ± 0.0026
UUGAGA	0.325 ± 0.084	1.841 ± 0.013	0.468 ± 0.01	1.993 ± 0.0082
GUCCAG	0.335 ± 0.07	1.966 ± 0.011	0.103 ± 0.16	1.975 ± 0.018
GUGACA	0.277 ± 0.2	1.989 ± 0.003	0.446 ± 0.1	1.99 ± 0.05
GUGACC	0.7143 ± 0.0036	2.03 ± 0.0039	0.585 ± 0.22	2.02 ± 0.028
CUGGGA	0.446 ± 0.08	2.006 ± 0.014	0.348 ± 0.35	2.03 ± 0.047
CUCCGC	0.443 ± 0.04	2.042 ± 0.0057	0.294 ± 0.047	1.985 ± 0.019
CUCCGG	0.136 ± 0.061	2.044 ± 0.0029	-0.307 ± 0.12	2.05 ± 0.028
GUGUGA	0.383 ± 0.041	1.9667 ± 0.00054	0.136 ± 0.21	2.038 ± 0.013
GUGUGU	0.164 ± 0.1	1.942 ± 0.0063	0.271 ± 0.083	2.02 ± 0.036
GUGUGC	-0.0812 ± 0.0037	1.758 ± 0.017	0.131 ± 0.14	1.979 ± 0.0082
AUCUGG	0.349 ± 0.012	1.92 ± 0.023	0.27 ± 0.019	2.02 ± 0.042
UUUAAG	0.386 ± 0.13	1.769 ± 0.0025	0.698 ± 0.2	1.96 ± 0.046
UUGCUA	0.353 ± 0.027	2.002 ± 0.0079	0.377 ± 0.051	2.04 ± 0.026
UUGUAU	-0.387 ± 0.048	1.99 ± 0.02	-0.176 ± 0.12	2.014 ± 0.0072
UUGUAG	0.271 ± 0.0067	1.866 ± 0.0056	0.397 ± 0.18	1.992 ± 0.0089
GUCGCC	0.306 ± 0.12	2.015 ± 0.012	0.25 ± 0.17	2.02 ± 0.052
GUCGCA	0.512 ± 0.053	2.03 ± 0.021	0.745 ± 0.29	2.01 ± 0.041

Variant	FACS-Seq fitted mean (log10) [1]	normalized RNA/DNA level without ligand (log10) [2]	FACS-Seq fitted mean (log10) [3]	normalized RNA/DNA level with ligand (log10) [4]
AUCUCG	0.399 ± 0.02	1.976 ± 0.012	0.435 ± 0.35	2.04 ± 0.035
CUCGAG	0.167 ± 0.042	1.96 ± 0.02	0.115 ± 0.2	1.977 ± 0.012
AUCACA	0.256 ± 0.074	2.004 ± 0.0041	0.0653 ± 0.038	2.02 ± 0.032
UUGAAG	0.386 ± 0.00085	1.75 ± 0.026	0.374 ± 0.21	1.981 ± 0.0095
UUGAAA	0.358 ± 0.051	1.936 ± 0.014	0.286 ± 0.27	2.02 ± 0.028
GUUAUG	0.244 ± 0.011	1.929 ± 0.0065	0.431 ± 0.16	1.99 ± 0.0045
GUUAUA	-0.102 ± 0.13	1.99 ± 0.031	-0.0941 ± 0.099	2.012 ± 0.019
GUCUCG	0.378 ± 0.032	1.997 ± 0.0037	0.197 ± 0.26	2.003 ± 0.013
CUGCCC	0.494 ± 0.029	2.07 ± 0.041	0.403 ± 0.0067	2.06 ± 0.021
AUCUUG	0.284 ± 0.023	1.952 ± 0.0043	0.288 ± 0.16	2.01 ± 0.028
AUCUUA	0.327 ± 0.012	2.042 ± 0.0064	0.337 ± 0.14	2.03 ± 0.043
CUGGCU	0.556 ± 0.0076	2.033 ± 0.016	0.55 ± 0.13	2.02 ± 0.036
GUGAUA	0.573 ± 0.073	1.97 ± 0.017	0.371 ± 0.036	2 ± 0.022
UUCAAG	0.372 ± 0.12	1.85 ± 0.014	0.562 ± 0.035	2.01 ± 0.034
UUCAAU	0.465 ± 0.017	2.004 ± 0.013	0.748 ± 0.3	1.98 ± 0.052
GUGGGA	-0.679 ± 0.016	2.018 ± 0.0036	-0.94 ± 0.38	2.03 ± 0.025
GUGGGC	0.414 ± 0.04	1.788 ± 0.0052	0.738 ± 0.17	1.98 ± 0.024
GUUCAC	0.0291 ± 0.011	2.041 ± 0.016	-0.0744 ± 0.017	2.032 ± 0.014
GUUCAA	0.497 ± 0.083	1.98 ± 0.023	0.591 ± 0.17	1.98 ± 0.023
CUUAUU	0.473 ± 0.12	1.985 ± 0.0074	0.678 ± 0.072	2.01 ± 0.024
GUCCCC	-0.921 ± 0.05	2.022 ± 0.014	-1.94 ± 0.26	1.995 ± 0.0047
GUCAAG	0.249 ± 0.027	1.974 ± 0.0083	0.168 ± 0.075	2.03 ± 0.045
GUCUAU	0.0107 ± 0.49	2 ± 0.014	0.473 ± 0.4	2.02 ± 0.026
AUGUAG	0.508 ± 0.058	1.864 ± 0.016	0.615 ± 0.17	1.99 ± 0.035

Variant	FACS-Seq fitted mean (log10) [1]	normalized RNA/DNA level without ligand (log10) [2]	FACS-Seq fitted mean (log10) [3]	normalized RNA/DNA level with ligand (log10) [4]
AUGUGG	0.0386 ± 0.035	1.844 ± 0.0091	0.311 ± 0.041	2.01 ± 0.046
CUGCAG	0.542 ± 0.11	1.91 ± 0.021	0.679 ± 0.4	1.977 ± 0.0074
AUUAUU	0.191 ± 0.11	2.02 ± 0.023	0.497 ± 0.056	2.03 ± 0.024
UUCGAG	0.119 ± 0.084	1.77 ± 0.033	0.699 ± 0.054	1.97 ± 0.055
AUCAGU	-0.132 ± 0.056	1.97 ± 0.021	-0.238 ± 0.53	1.996 ± 0.017
CUCAAU	0.0874 ± 0.13	1.97 ± 0.036	0.0541 ± 0.42	1.971 ± 0.011
UUGGGU	0.184 ± 0.18	1.943 ± 0.0059	0.455 ± 0.16	1.98 ± 0.033
UUGGGG	0.207 ± 0.029	1.824 ± 0.0037	0.521 ± 0.12	2.02 ± 0.036
CUGAAA	0.38 ± 0.12	1.986 ± 0.0076	0.578 ± 0.071	2 ± 0.014
GUCUUG	0.0388 ± 0.018	1.974 ± 0.0081	0.151 ± 0.32	2.05 ± 0.049
GUGGAC	0.143 ± 0.12	1.868 ± 0.016	-0.011 ± 0.21	1.975 ± 0.0039
GUCGAU	0.179 ± 0.051	1.986 ± 0.015	0.225 ± 0.17	2.02 ± 0.026
GUCGAC	0.479 ± 0.017	1.965 ± 0.0058	0.62 ± 0.022	2.025 ± 0.0097
GUGGCC	0.354 ± 0.0094	2.02 ± 0.029	0.72 ± 0.12	2.05 ± 0.023
GUGGCA	0.0901 ± 0.037	2.011 ± 0.0084	0.458 ± 0.2	2.02 ± 0.042
AUGACU	0.261 ± 0.032	2.01 ± 0.025	0.313 ± 0.27	2.02 ± 0.03
AUGACG	0.318 ± 0.062	1.941 ± 0.0037	0.394 ± 0.14	2.02 ± 0.022
AUGACA	0.187 ± 0.069	1.987 ± 0.0094	0.323 ± 0.037	2 ± 0.032
GUCAUG	0.406 ± 0.047	2.004 ± 0.01	0.165 ± 0.087	2.03 ± 0.027
AUGCGU	0.523 ± 0.16	1.951 ± 0.016	0.63 ± 0.3	1.99 ± 0.031
AUGCGG	0.0258 ± 0.11	1.939 ± 0.013	0.185 ± 0.22	2.02 ± 0.043
AUGCGA	0.422 ± 0.019	1.979 ± 0.00081	0.569 ± 0.15	2.01 ± 0.035
GUUAGG	0.206 ± 0.031	1.938 ± 0.0023	0.301 ± 0.51	2 ± 0.031
